Measurements: publication PMC7865483 (International Journal of Molecular Sciences, 2021)
Blank lines part the entries; values can stand above or below the binder they belong to.

Biological target: T1, Pank1 (pantothenate kinase 1), endogenous in A549 cells (human (endogenous in A549), UniProt Q8TE04 1-598)
T1 construct: pantothenate kinase 1, endogenous in the human lung cancer cell line A549; source: endogenous, A549 cells (fixed cells for PLA)
Test: proximity ligation; in situ PLA (Duolink) on fixed A549 cells, endogenous proteins; cells serum-starved for 24 h, or serum-starved and then treated with 500 μM H2O2
Settings: partners not purified

T1 sequence (Q8TE04 whole entry): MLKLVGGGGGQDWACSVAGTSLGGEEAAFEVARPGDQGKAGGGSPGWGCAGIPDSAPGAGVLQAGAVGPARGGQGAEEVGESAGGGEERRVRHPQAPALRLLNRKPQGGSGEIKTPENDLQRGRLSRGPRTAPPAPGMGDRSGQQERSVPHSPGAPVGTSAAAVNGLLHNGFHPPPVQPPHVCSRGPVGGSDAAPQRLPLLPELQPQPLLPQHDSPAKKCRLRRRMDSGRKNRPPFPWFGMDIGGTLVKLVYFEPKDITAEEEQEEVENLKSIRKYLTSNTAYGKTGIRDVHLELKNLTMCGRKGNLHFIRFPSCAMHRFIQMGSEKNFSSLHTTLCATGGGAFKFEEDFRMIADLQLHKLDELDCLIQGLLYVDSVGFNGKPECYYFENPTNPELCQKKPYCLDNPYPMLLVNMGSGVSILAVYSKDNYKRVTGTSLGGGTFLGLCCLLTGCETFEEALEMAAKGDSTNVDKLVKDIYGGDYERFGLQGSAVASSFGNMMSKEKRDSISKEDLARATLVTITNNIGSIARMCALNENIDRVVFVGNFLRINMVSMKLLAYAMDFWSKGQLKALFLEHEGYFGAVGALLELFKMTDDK

- fold increase of the PLA signal after 24 h serum starvation, against control cells: ~10 fold
- fold increase of the PLA signal after stress treatments, against control conditions: ~10 fold
B1: CoA synthase (CoAsy) (enzyme, human (endogenous in HEK293 and A549), UniProt Q13057 1-564, looked up)
chain: MAVFRSGLLVLTTPLASLAPRLASILTSAARLVNHTLYVHLQPGMSLEGPAQPQSSPVQATFEVLDFITHLYAGADVHRHLDVRILLTNIRTKSTFLPPLPTSVQNLAHPPEVVLTDFQTLDGSQYNPVKQQLVRYATSCYSCCPRLASVLLYSDYGIGEVPVEPLDVPLPSTIRPASPVAGSPKQPVRGYYRGAVGGTFDRLHNAHKVLLSVACILAQEQLVVGVADKDLLKSKLLPELLQPYTERVEHLSEFLVDIKPSLTFDVIPLLDPYGPAGSDPSLEFLVVSEETYRGGMAINRFRLENDLEELALYQIQLLKDLRHTENEEDKVSSSSFRQRMLGNLLRPPYERPELPTCLYVIGLTGISGSGKSSIAQRLKGLGAFVIDSDHLGHRAYAPGGPAYQPVVEAFGTDILHKDGIINRKVLGSRVFGNKKQLKILTDIMWPIIAKLAREEMDRAVAEGKRVCVIDAAVLLEAGWQNLVHEVWTAVIPETEAVRRIVERDGLSEAAAQSRLQSQMSGQQLVEQSHVVLSTLWEPHITQRQVEKAWALLQKRIPKTHQALD

- fold increase of the PLA signal after stress treatments, against control conditions: ~10 fold
B2: 4′-phosphopantothenoylcysteine synthetase (PPCS) (enzyme)
chain: not shown
